In assay [1] the target is T1, M1 linked linear ubiquitin (di-Ub) (UniProt P0CG48 1-76; P0CG48 1-76).
T1 construct: ubiquitin, first (distal) unit of the M1-linked dimer; ubiquitin, second (proximal) unit, joined by its M1 to G76 of the first unit; also called linear di-Ub; M1 diUb conjugates; source: bought: UbiQ (UbiQ-L01)
Put plainly: SPR; Biacore S200, 25°C; His-tagged UFD-2 or His-tagged Ufd2p immobilised on NTA chips at 20 μg/ml; single-cycle kinetics with M1 diUb at 0, 100, 200, 500, 1,000 and 2,000 nM; 10 mM HEPES, 150 mM NaCl, 0.05% Tween 20, 0.1% BSA, 50 μM EDTA, pH 8.0. Particulars: both partners purified.

Another assay concerns the target CHN-1 (C. elegans). As to the kind of experiment: cell-based or functional assay.

Sequence of CHN-1 (C. elegans) (main, as listed by the source): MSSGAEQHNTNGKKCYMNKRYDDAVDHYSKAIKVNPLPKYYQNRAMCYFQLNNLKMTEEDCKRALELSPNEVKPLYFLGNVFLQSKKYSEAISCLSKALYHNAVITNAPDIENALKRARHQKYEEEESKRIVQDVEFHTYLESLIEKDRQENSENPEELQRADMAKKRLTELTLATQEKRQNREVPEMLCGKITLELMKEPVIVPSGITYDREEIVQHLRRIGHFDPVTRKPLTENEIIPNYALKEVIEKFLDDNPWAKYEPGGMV

B1: 6xHis::Ufd2p (enzyme, S. cerevisiae, UniProt P54860 1-961, looked up)
chain: MTAIEDILQITTDPSDTRGYSLLKSEEVPQGSTLGVDFIDTLLLYQLTENEKLDKPFEYLNDCFRRNQQQKRITKNKPNAESLHSTFQEIDRLVIGYGVVALQIENFCMNGAFINYITGIVSNVNSYTDFLSQIIQRAILEGTALDLLNAVFPTLLEYCNKHVSHFDLNESVIYNNVLTIFELFVTFKPIAEIFTKIDGFFADYSCKPQDFERKTILGPILSLSPIEAAVAIRNYGDNLLRSKQQTAMIHESLQAEHKVVIDRLFFIVDKLVRGSLNSRTDMISYFAHIANKNHLRRADHPPFKELSSNGFMSNITLLLVRFSQPFLDISYKKIDKIDANYFNNPSLFIDLSGETRLNSDFKEADAFYDKNRKTADSKPNFISDCFFLTLTYLHYGLGGTLSFEEKMGSEIKALKEEIEKVKKIAANHDVFARFITAQLSKMEKALKTTESLRFALQGFFAHRSLQLEVFDFICGASTFLIRVVDPEHEFPFKQIKLPLIPDQIGVENVDNADFLRAHAPVPFKYYPEFVVEGPVNYSLYISKYQTSPIFRNPRLGSFVEFTTMVLRCPELVSNPHLKGKLVQLLSVGAMPLTDNSPGFMMDIFEHDELVNKNLLYALLDFYVIVEKTGSSSQFYDKFNSRYSISIILEELYYKIPSYKNQLIWQSQNNADFFVRFVARMLNDLTFLLDEGLSNLAEVHNIQNELDNRARGAPPTREEEDKELQTRLASASRQAKSSCGLADKSMKLFEIYSKDIPAAFVTPEIVYRLASMLNYNLESLVGPKCGELKVKDPQSYSFNPKDLLKALTTVYINLSEQSEFISAVAKDERSFNRNLFVRAVDILGRKTGLASPEFIEKLLNFANKAEEQRKADEEEDLEYGDVPDEFLDPLMYTIMKDPVILPASKMNIDRSTIKAHLLSDSTDPFNRMPLKLEDVTPNEELRQKILCFKKQKKEEAKHKASE
notes: Ufd2p, S. cerevisiae; from pET28a-6xHis::Ufd2p; The plasmid is from Liu et al (2017); also called S. cerevisiae Ufd2p; His-tagged Ufd2p; source: bacterial expression system, purified; not shown: 6xHis, N-terminal, kept
Take B1: the binding result in assay [1] is “binds”.

B2: 6xHis::UFD-2^P951A (enzyme, C. elegans, UniProt Q09349 1-984, looked up)
chain: MIEDEKAGLQPMDISDASVFFFQADVESKDFLTSLFDCEGKSDDRMLRYADAIIDVQNLNFDVSPQCLQSNIAEIITKFVLLSQDGSRRGLSRSFNFIDPDIIAGCREEDAIEFLLINFVRCHHELGKSGTSNCYKKTLESTRKAVFSVFVMIQRGYLESQLRSQHASLVFTKRLLEDTVSNVFLRTLVEYLASTDECDEDAITETFNPIFGILRSGIICQRFEDNKDEIVRQILRVMNLLLSIRLPSNGPRPLSNLLVNREDFLPTPSEKIQGREFGLMSFLGPFFSYGLESSARRPNHRVFVDCEEDARKYDGSVNTEQKLYFQRMDPIRTMLHQLMLPLASDQGSRNKTLRWIATIISTNDIRTRSHYDPSDVLCDHYMTNFLSVMYMFSEKIDLSKIIVDYPFLPSSLINISKETRLKMDESGAVAFASQFADRPDEYHFSTVCFFLTIAAQRLVIPPLMNQISEYSRHLKELKHKINALKEKLNTVSGFERAEVEKKLNYETEHWKLMSRHLLCVKTQAQDPALMASSMDFVDKQMKFILNLLCDNLDLLGDDSQLPTEVSQMFCALPEYFLEDALDFYIFAISNGMKLLMERNADWISRLTVLFTQYHYIKSPFLVSKLVRVLSSIQPPLWFNVVRLRMAQENLLMCMIKFYSDFEDNGDFYEKFNVRGNIQYMLEKMEEDMFYKGKFMDMARECGAEFIRFVNMVINDATWCIDESLSGLKSIHDVEKKMANKVEWDNTDQEIRNQDLGVYEEAKRKVKGWLGTAKSNLKLLLSITVNSPEPFRTPVLGERLAAMLNHNLSQLIGSKASELKVKDPRSYGWEPREFVSLLISIYLKLNMPAFVKYIAYDERTYSPEFFHNAIECMRKNSIVGFSQLESFEHLAEDVKKEYEAKAELEEEYDDVPEEFKDPIMDAIMVDPVKLPSGHVMDRAVIERHLLSTPNNAFNRAPLSHNELSPDSELKAKIQEWICQKRNSKK
For the molecule B2, the “discharge of Ub-charged UBE2D1 by CHN-1, alone or mixed with UFD-2^P951A” value with CHN-1 was at least 2 fold.

The values above are taken from PMC9340540, “A heterotypic assembly mechanism regulates CHIP E3 ligase activity” (The EMBO Journal, 2022).
